Data published in the supplement of paper PMC10567573.

B1: TRIM14 (parent)
chain: REQADSCREQLDIMNDLSNRVWSI
B2: KCNA4 (parent)
chain: YQSGGRLKRPVNVPFDIFTEEVKF

Variants of: B1
Assay: protein stability index of a GFP-peptide fusion (GPS, HEK-293T) (PSI 1-6); higher = more stable
Details: c terminus: a fixed tail appended
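Note: lentivirally expressed fusions sorted by FACS into six bins by GFP to DsRed ratio, PSI derived from sequencing read proportions per bin multiplied by bin number.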

Protein stability index, by site and new letter:
Q3: K 1.59, L 1.68, A 2.48, H 1.87, N 2.13, E 3.01, C 2.08, D 2.8, F 1.82, M 1.75, I 2.04, G 1.82
E2: D 2.45, T 2.13, L 1.25, Y 2.83, F 2.92, Q 1.63, I 1.75, N 2.46, G 1.85, W 1.91, M 2.56, H 1.53, A 1.93, S 1.28, C 1.95, P 2.33, R 1.66, V 1.98, K 1.83
R1: V 2.96, P 2.48, E 3.17, F 1.88, D 2.64, W 2.82, N 2.56, Q 2.58, L 2.32, I 2.63, A 2.81, T 2.75, K 1.72, H 2.29, G 1.86, S 3.43, C 2.15, Y 2.11, M 2.19

Variants of: B2
Assay: as above
Details: c terminus: a fixed tail appended

Protein stability index: each site, then its substitutions
T19: Q 1.42, G 1.94, F 2.1, Y 2.16, V 1.96, K 2.66, R 1.2, P 1.53, S 2.09, C 1.46, H 2.83, E 1.92, W 1.41, I 1.72, N 2.33, D 2.38
E20: S 1.92, H 1.43, R 1.31, K 1.7, N 2.12, P 2.11, Q 1.44, C 2.11, D 2.57, I 1.47, T 1.53, G 1.57
F18: G 2.29, K 1.84, Q 2.65, R 1.93, I 1.97, M 2.02, H 2.15, S 2.43, L 2.5, P 2.44, D 2.01, C 1.57, T 2.26, V 1.67, A 2.28, N 2.1, E 1.81
I17: Y 1.99, T 2.89, V 1.28, W 2.99, Q 1.72
V22: A 1.58, N 1.83, H 1.86, S 2, Q 2.08, E 2.77, T 1.96, I 1.38, K 1.59, Y 2.25, L 1.99, F 2.06, R 1.48, D 2.09, P 1.54, C 1.54, G 2.34
F24: T 2.18, R 2.59, M 1.63, K 2.49, W 1.92, I 1.71, S 2.79, Y 2.89, Q 2.92, N 1.93, V 2.49, G 2.26, A 1.78, P 2.25, E 2.32, D 2.11, C 1.93, H 2.16, L 2.05
K23: P 1.44, M 2.17, T 2.36, Q 2.06, C 2.33, D 1.82, N 2.3, E 1.05, A 1.35, F 2.99, Y 1.52, L 2.53, R 1.96, H 1.71, V 2.42, I 2.65
E21: Y 2.61, P 2.13, C 1.7, K 1.17, D 2.37, A 1.89, V 1.81, T 1.81, N 2.63, I 2.24, F 1.55, G 2.36, S 1.24, H 1.77, M 1.06
